Paper PMC5797146
Several values for one entry are separate records, joined by “and”; a condition that tells them apart may be missing. Identical values can stand only once.

Legend:
[1] = target: Clostridium difficile toxin A (Clostridium difficile) (UniProt P16154)
[2] = target: Clostridium difficile toxin A (Clostridium difficile) (UniProt P16154); assay: SPR

B1: A26.8 VHH (parent) (VHH)
VHH: QVKLEESGGGLVQAGGSLRLSCAASERTFSRYPVAWFRQAPGAEREFVAVISSTGTSTYYADSVKGRFTISRDNAKVTVYLQMNNLKREDTAVYFCAVNSQRTRLQDPNEYDYWGQGTQVTVSS
- other [1]: 70 nM and 60%
- Kd [2]: 0.0187 µM
- koff [2]: 0.034 s⁻¹
- kon [2]: 1.8e+06 M⁻¹ s⁻¹
